To fix the notation:
B1: ZNF263 (parent)
chain: VPGTQVGQGGKLWDPSVQSCKEGL
B2: TMEM175 (parent)
chain: ALLHQAETLQPSVWFGGREHVLMF
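Also: lentivirally expressed fusions sorted by FACS into six bins by GFP to DsRed ratio, PSI derived from sequencing read proportions per bin multiplied by bin number.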

The variants in the first data set derive from B1. Description: protein stability index of a GFP-peptide fusion (GPS, HEK-293T) (PSI 1-6); higher = more stable. The following applies: c terminus: a fixed tail appended.
As for VPGTQVGQGGKLWDPSVQSCKMGL [E22M], the protein stability index amounted to 3.13. Still for that read-out and setting: the result for VPGTQVGQGGKLWDPSVQSCKWGL [E22W] reads 1.99; that for VPGTQVGQGGKLWDPSVQSCKFGL [E22F], 2.58. On the same count and under the same terms, the result for VPGTQVGQGGKLWDPSVQSCKVGL [E22V] reads 3.79; that for VPGTQVGQGGKLWDPSVQSCKGGL [E22G], 4.34; that for VPGTQVGQGGKLWDPSVQSCKCGL [E22C], 3.42.

For the variant VPGTQVGQGGKLWDPSVQSCKQGL [E22Q], the protein stability index was 3.84.

Consider VPGTQVGQGGKLWDPSVQSCKAGL [E22A], for which the protein stability index stood at 3.06. Turning to VPGTQVGQGGKLWDPSVQSCKDGL [E22D], the protein stability index is 4.25. Same read-out and setting: the value for VPGTQVGQGGKLWDPSVQSCKLGL [E22L] was 2.96; that for VPGTQVGQGGKLWDPSVQSCKRGL [E22R] was 4.05. On the same count and under the same terms, the result for VPGTQVGQGGKLWDPSVQSCKYGL [E22Y] reads 3.07. With VPGTQVGQGGKLWDPSVQSCKSGL [E22S], the protein stability index was 3.95. The same measure, in the same setting: the result for VPGTQVGQGGKLWDPSVQSCKHGL [E22H] reads 3.98; that for VPGTQVGQGGKLWDPSVQSCKEGQ [L24Q], 5.03; that for VPGTQVGQGGKLWDPSVQSCKEGA [L24A], 4.69. Still for that read-out and setting: the value for VPGTQVGQGGKLWDPSVQSCKEGE [L24E] was 5.18; that for VPGTQVGQGGKLWDPSVQSCKEGI [L24I] was 4.22. For VPGTQVGQGGKLWDPSVQSCKEGV [L24V], the protein stability index turned out to be 4.35. Still for that read-out and setting: the result for VPGTQVGQGGKLWDPSVQSCKEGD [L24D] reads 5.51; that for VPGTQVGQGGKLWDPSVQSCKEGT [L24T], 4.26; that for VPGTQVGQGGKLWDPSVQSCKEGR [L24R], 4.92. Still for that read-out and setting: the value for VPGTQVGQGGKLWDPSVQSCKEGP [L24P] was 4.79; that for VPGTQVGQGGKLWDPSVQSCKEGM [L24M] was 4.09.

Consider VPGTQVGQGGKLWDPSVQSCKEGK [L24K], for which the protein stability index stood at 4.8.

VPGTQVGQGGKLWDPSVQSCKEGW [L24W]: the protein stability index stood at 4.32. On the same count and under the same terms, the result for VPGTQVGQGGKLWDPSVQSCKEGG [L24G] reads 4.49. Take VPGTQVGQGGKLWDPSVQSCKEGY [L24Y]: the protein stability index turned out to be 3.73. VPGTQVGQGGKLWDPSVQSCKEGC [L24C]: the protein stability index was 3.9.

Regarding VPGTQVGQGGKLWDPSVQSCKEGF [L24F], the protein stability index was determined as 4.11.

As for VPGTQVGQGGKLWDPSVQSCKEGH [L24H], the protein stability index worked out at 4.27. Still for that read-out and setting: the value for VPGTQVGQGGKLWDPSVQSCKEGN [L24N] was 4.76; that for VPGTQVGQGGKLWDPSVQSCKEGS [L24S] was 4.99; that for VPGTQVGQGGKLWDPSVFSCKEGL [Q18F] was 3.2. In the case of VPGTQVGQGGKLWDPSVYSCKEGL [Q18Y], the protein stability index came out at 4.01. Still for that read-out and setting: the result for VPGTQVGQGGKLWDPSVLSCKEGL [Q18L] reads 3.97; that for VPGTQVGQGGKLWDPSVTSCKEGL [Q18T], 4.47; that for VPGTQVGQGGKLWDPSVHSCKEGL [Q18H], 3.89. With VPGTQVGQGGKLWDPSVRSCKEGL [Q18R], the protein stability index amounted to 3.05. Same read-out and setting: the value for VPGTQVGQGGKLWDPSVWSCKEGL [Q18W] was 3. Turning to VPGTQVGQGGKLWDPSVNSCKEGL [Q18N], the protein stability index worked out at 3.42. Turning to VPGTQVGQGGKLWDPSVVSCKEGL [Q18V], the protein stability index was 3.87. The same measure, in the same setting: the result for VPGTQVGQGGKLWDPSVPSCKEGL [Q18P] reads 4.38; that for VPGTQVGQGGKLWDPSVASCKEGL [Q18A], 3.46; that for VPGTQVGQGGKLWDPSVGSCKEGL [Q18G], 4.92.

Take VPGTQVGQGGKLWDPSVESCKEGL [Q18E]: the protein stability index came out at 4.7.

For VPGTQVGQGGKLWDPSVKSCKEGL [Q18K], the protein stability index was 4.39. As to VPGTQVGQGGKLWDPSVMSCKEGL [Q18M], the protein stability index came out at 4.38. VPGTQVGQGGKLWDPSVISCKEGL [Q18I]: the protein stability index turned out to be 4.01. The same measure, in the same setting: the value for VPGTQVGQGGKLWDPSVCSCKEGL [Q18C] was 3.63; that for VPGTQVGQGGKLWDPSVDSCKEGL [Q18D] was 4.54. Take VPGTQVGQGGKLWDPSVSSCKEGL [Q18S]: the protein stability index was 3.88. Same read-out and setting: the value for VPGTQVGQGGKLWDPSVQNCKEGL [S19N] was 4.39; that for VPGTQVGQGGKLWDPSVQGCKEGL [S19G] was 4.41. The same measure, in the same setting: the result for VPGTQVGQGGKLWDPSVQHCKEGL [S19H] reads 4.05; that for VPGTQVGQGGKLWDPSVQYCKEGL [S19Y], 3.76. On the same count and under the same terms, the value for VPGTQVGQGGKLWDPSVQWCKEGL [S19W] was 3.38; that for VPGTQVGQGGKLWDPSVQMCKEGL [S19M] was 3.69; that for VPGTQVGQGGKLWDPSVQDCKEGL [S19D] was 4.88.

Consider VPGTQVGQGGKLWDPSVQVCKEGL [S19V], for which the protein stability index came out at 4.31. Still for that read-out and setting: the value for VPGTQVGQGGKLWDPSVQFCKEGL [S19F] was 3.98; that for VPGTQVGQGGKLWDPSVQACKEGL [S19A] was 4.35; that for VPGTQVGQGGKLWDPSVQLCKEGL [S19L] was 4.04. On the same count and under the same terms, the result for VPGTQVGQGGKLWDPSVQQCKEGL [S19Q] reads 4.3; that for VPGTQVGQGGKLWDPSVQTCKEGL [S19T], 4.29. Same read-out and setting: the result for VPGTQVGQGGKLWDPSVQICKEGL [S19I] reads 3.77; that for VPGTQVGQGGKLWDPSVQCCKEGL [S19C], 3.39. Regarding VPGTQVGQGGKLWDPSVQECKEGL [S19E], the protein stability index is 4.38.

As to VPGTQVGQGGKLWDPSVQPCKEGL [S19P], the protein stability index was 4.33. Regarding VPGTQVGQGGKLWDPSVQRCKEGL [S19R], the protein stability index turned out to be 3.89. As for VPGTQVGQGGKLWDPSVQKCKEGL [S19K], the protein stability index amounted to 4.25.

Variants of B2 are the subject of a further data set. Described as above. The following applies: c terminus: a fixed tail appended.
For KLLHQAETLQPSVWFGGREHVLMF [A1K], the protein stability index was 2.35. Same read-out and setting: the value for ALLHQAETLQPSVWFGGREHDLMF [V21D] was 1.77; that for ALLHQAETLQPSVWFGGREHVLMN [F24N] was 3.21; that for ALLHQAETLQPSVWFGGREHVLMM [F24M] was 3.11.

For the variant ALLHQAETLQPSVWFGGREHVLMK [F24K], the protein stability index worked out at 2.5. In the case of ALLHNAETLQPSVWFGGREHVLMF [Q5N], the protein stability index amounted to 2.68.

Consider ASLHQAETLQPSVWFGGREHVLMF [L2S], for which the protein stability index stood at 2.83.

Turning to ALLHQAETLQPSVWFGGREHVLHF [M23H], the protein stability index was 2.39.

ALLHQAETLQPSVWFGGREHVLDF [M23D]: the protein stability index stood at 1.04.

As to ALLHQAETGQPSVWFGGREHVLMF [L9G], the protein stability index worked out at 2.85. As for ALLHQAETLQPSVWFGGREHVGMF [L22G], the protein stability index amounted to 1.77.

On to ALLHQAETLQPSVWFGGREHVAMF [L22A], for which the protein stability index amounted to 1.1. With ALLHQYETLQPSVWFGGREHVLMF [A6Y], the protein stability index was 2.91.

Turning to ALLHQCETLQPSVWFGGREHVLMF [A6C], the protein stability index turned out to be 3.75. The same measure, in the same setting: the result for ALLHQTETLQPSVWFGGREHVLMF [A6T] reads 1.83; that for ALLHQEETLQPSVWFGGREHVLMF [A6E], 1.54; that for ALLHQAETLQPSVWFGGPEHVLMF [R18P], 1.71. Take ALLHQAETLQPSVWFGGCEHVLMF [R18C]: the protein stability index stood at 3.1. Turning to ALLHQAETLQPSVWFGGSEHVLMF [R18S], the protein stability index is 1.15. ALLHQAETLQPSVQFGGREHVLMF [W14Q]: the protein stability index was 2.24. On the same count and under the same terms, the result for ALLHQAETLQPSVNFGGREHVLMF [W14N] reads 1.3; that for ALLHQAETLQPSVWFGGRESVLMF [H20S], 2.21; that for ALLHQAETLQPSVWFGGRETVLMF [H20T], 3.65.
